According to patent publication US20190367612A1 (Daiichi Sankyo, published 2019):
Each block holds one binder with its values, some of them ahead of it.

Legend:
[1] = target: T1, human GPRC5D (human, UniProt Q9NZD1 1-345); assay: flow cytometry, KHM-1B cells
T1 construct: whole, on cells; also called hGPRC5D; G-protein coupled receptor family C group 5 member D
Protocol: Human multiple myeloma cell line KHM-1B cells (JCRB Cell Bank) expressing GPRC5D were adjusted to a concentration of 5×10⁶ cells/mL with PBS containing 5% FBS, inoculated in an amount of 100 μL/well to a 96-well U-bottomed microplate, and centrifuged to remove a supernatant. Each rat anti-GPRC5D antibody (2A4, 2B1, and 7B4) adjusted to 0.32 ng/mL to 10 μg/mL in Example 1)-7 was added thereto in an amount of 100 μL/well, and the plate was left standing at 4° C. for 1 hour. The cells were washed twice with PBS containing 5% FBS. Then, PE Goat Anti-Rat Ab (Becton, Dickinson and Company) diluted 100-fold with PBS containing 5% FBS was added thereto at a concentration of 100 μL/well, and the plate was left standing at 4° C. for 1 hour. The cells were washed twice with PBS containing 5% FBS and then resuspended in PBS containing 5% FBS, followed by detection using a flow cytometer (FACSCanto™ II; Becton, Dickinson and Company). The data was analyzed using Flowjo (Tree Star, Inc.). The PE fluorescence intensity of the cell fraction was plotted to a histogram, and the mean fluorescence intensity (MFI) was calculated.

[2] = target: T1, human GPRC5D; assay: flow cytometry, KMS-34 cells
[3] = target: T2, human GPRC5D amino-terminal peptide …(Biotin)-NH2, lacking an intramolecular disulfide bond (human, biotinylated carboxy terminus, C-terminal amide; no intramolecularly formed disulfide bond); assay: ELISA, immobilised biotinylated peptide
T2 construct: Sigma-Aldrich synthetic peptide; also called amino-terminal peptide of human GPRC5D (disulfide bond absent)
T2 peptide: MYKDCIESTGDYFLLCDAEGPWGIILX
Excerpt: (§1) Epitopes bound by the obtained rat anti-GPRC5D antibodies (2A4, 2B1, and 7B4) were identified using a human GPRC5D amino-terminal peptide […](Biotin)-NH₂ (Sigma-Aldrich Corp.) (SEQ ID NO: 1 of the Sequence Listing; FIG. 2) having a biotinylated carboxy-terminal peptide and lacking an intramolecularly formed disulfide bond, and a human GPRC5D amino-terminal peptide […]-K(Biotin)-NH₂ (Peptide Institute, Inc.) (SEQ ID NO: 2 of the Sequence Listing; FIG. 3) having a lysine-containing biotinylated carboxy terminus and having an intramolecularly formed disulfide bond. Each peptide diluted with PBS was added to Nunc Immobilizer (Thermo Fisher Scientific Inc.), and the plate was left standing at room temperature for 1 hour. After washing three times with PBST, […] containing 1% BSA was added thereto, and the plate was left standing at room temperature for 1 hour. After washing three times with PBST, each rat anti-GPRC5D antibody (2A4, 2B1, and 7B4) prepared in Example 1)-7 and diluted to 0.1 ng/mL to 1 μg/mL with PBS was added thereto, and the plate was left standing at room temperature for 1 hour. After washing three times with PBST, Anti-Rat IgG, HRP-Linked Whole Ab Goat (GE Healthcare Bio-Sciences Corp.) diluted 500-fold with PBS was added thereto, and the plate was left standing at room temperature for 1 hour. After washing three times with PBST, SuperSignal™ ELISA Pico Chemiluminescent Substrate (Thermo Fisher Scientific Inc.) was added thereto, and the luminescence was measured using a plate reader (ENVISION; PerkinElmer, Inc.).

[4] = target: T3, human GPRC5D amino-terminal peptide MYKDCIESTGDYFLLCDAEGPWGIILE-K(Biotin)-NH2, having an intramolecular … (human, C-terminal lysine carrying biotin, C-terminal amide; intramolecularly formed disulfide bond); assay: ELISA, immobilised biotinylated peptide
T3 construct: Peptide Institute synthetic peptide; also called amino-terminal peptide of biotinylated human GPRC5D (disulfide bond present)
T3 peptide: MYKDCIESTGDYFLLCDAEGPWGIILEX
Excerpt: as §1

[5] = target: T4, cynomolgus monkey CD3 (cynomolgus monkey, UniProt Q95LI5 22-198); assay: flow cytometry on cynomolgus monkey PBMC, Penta-His Alexa Fluor 488 detection, rMFI = MFI minus sample without antibody
T4 construct: whole, on cells; CD3 complex on cynomolgus monkey PBMC; also called cynomolgus monkey CD3 (PBMC); cynomolgus monkey CD3-expressing cells

[6] = target: T1, human GPRC5D; assay: flow cytometry on A4/Fuk cells (endogenous human GPRC5D), Penta-His Alexa Fluor 488 detection, rMFI = MFI minus sample without antibody
Procedure, shortened: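 Live/dead-stained A4/Fuk lymphoma cells (1×10⁶ cells/mL) were incubated 60 min at 4° C with diluted anti-GPRC5D-anti-CD3 bispecifics in PBS/5% FBS. Binding was detected with Penta-His Alexa Fluor 488 (30 min, 4° C) by flow cytometry, gating out dead cells.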

[7] = target: T5, human CD3 (human, UniProt P07766 23-207); assay: flow cytometry on human PBMC (dead and CD19-positive cells excluded), Penta-His Alexa Fluor 488 detection, rMFI = MFI minus sample without antibody
T5 construct: CD3 complex on human PBMC; also called human CD3 (PBMC); human CD3-expressing cells
Protocol: Commercially available human PBMC (Cellular Technology Limited) was adjusted to an appropriate concentration with PBS containing 5% FBS. LIVE/DEAD Fixable Near-IR Dead Cell Stain Kit (Thermo Fisher Scientific Inc.) and an anti-CD19 antibody (Beckman Coulter Inc.) were added to the cells, which were then left standing at 4° C. for 30 minutes. The cells were washed twice with PBS containing 5% FBS, then adjusted to a concentration of 1×10⁶ cells/mL with PBS containing 5% FBS, inoculated in an amount of 100 μL/well to a 96-well U-bottomed microplate, and centrifuged to remove a supernatant. Each anti-GPRC5D-anti-CD3 bispecific molecule (C2037-C3E7034 to C3022-C3E7036 prepared in Example 12) diluted with PBS containing 5% FBS were added thereto in an amount of 100 μL/well, and the plate was left standing at 4° C. for 60 minutes. The cells were washed twice with PBS containing 5% FBS. Then, Penta-His Alexa Fluor 488 (Qiagen N.V.) diluted with PBS containing 5% FBS was added thereto in an amount of 30 μL/well, and the plate was left standing at 4° C. for 30 minutes. […] The data was analyzed using Flowjo (Tree Star, Inc.). The mean fluorescence intensity (MFI) of Alexa Fluor 488 in a fraction free from dead cells and CD19-positive cells was calculated. […]

[8] = target: T1, human GPRC5D; assay: flow cytometry on KHM-1B cells (human GPRC5D), culture supernatant, PE anti-human IgG Fc, rMFI over human IgG isotype control
Protocol: Human multiple myeloma cell line KHM-1B cells expressing GPRC5D were adjusted to a concentration of 2×10⁶ cells/mL with PBS containing 5% FBS, inoculated in an amount of 100 μL/well to a 96-well U-bottomed microplate, and centrifuged to remove a supernatant. The culture supernatant of each humanized anti-GPRC5D antibody obtained in Example 8)-3-1 or Human IgG isotype control antibody (Calbiochem/Merck Millipore Corp.) adjusted to 14 ng/mL to 30 μg/mL was added thereto in an amount of 100 μL/well, and the plate was left standing at 4° C. for 1 hour. The cells were washed twice with PBS containing 5% FBS. Then, R-Phycoerythrin AffiniPure F(ab′)2 Fragment Goat Anti-Human IgG, Fcγ Fragment Specific (Jackson ImmunoResearch Laboratories, Inc.) diluted 100-fold with PBS containing 5% FBS was added thereto in an amount of 100 μL/well, and the plate was left standing at 4° C. for 1 hour. The cells were washed twice with PBS containing 5% FBS and then resuspended in PBS containing 5% FBS, followed by detection using a flow cytometer (FACSCanto™ II; Becton, Dickinson and Company). The data was analyzed using Flowjo (Tree Star, Inc.). The PE fluorescence intensity of the cell fraction was plotted to a histogram, and the mean fluorescence intensity (MFI) was calculated. The MFI value of the control antibody was subtracted from the MFI value of the GPRC5D antibody to calculate a relative value of MFI (rMFI).

[9] = target: T6, cynomolgus monkey GPRC5D (cynomolgus monkey); assay: flow cytometry on KMS-11_cGPRC5D cells (cynomolgus monkey GPRC5D), PE anti-human IgG Fc detection, rMFI = MFI minus isotype control [label at the foot of D00092]
T6 construct: whole, on cells; Stably expressed on KMS-11 cells (KMS-11_cGPRC5D); also called cGPRC5D

[10] = target: T7, mouse GPRC5D (mouse, UniProt Q9JIL6 1-344); assay: flow cytometry, in the same way as in Example 5)-2
T7 construct: whole, on cells
T7 sequence (looked up): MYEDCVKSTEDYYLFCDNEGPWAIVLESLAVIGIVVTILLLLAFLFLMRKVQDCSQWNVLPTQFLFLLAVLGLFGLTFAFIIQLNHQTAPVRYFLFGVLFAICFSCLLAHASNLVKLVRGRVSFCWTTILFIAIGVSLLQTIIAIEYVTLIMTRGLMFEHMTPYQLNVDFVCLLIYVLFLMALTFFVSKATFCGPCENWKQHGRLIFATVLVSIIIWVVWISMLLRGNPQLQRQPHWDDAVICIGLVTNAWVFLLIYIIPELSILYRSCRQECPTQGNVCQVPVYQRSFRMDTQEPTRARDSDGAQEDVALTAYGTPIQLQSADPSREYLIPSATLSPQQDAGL

[11] = target: T1, human GPRC5D; assay: flow cytometry on KHM-1B cells (human GPRC5D), PE anti-human IgG Fc, rMFI over human IgG isotype control

T5 sequence (P07766 23-207 limits assumed): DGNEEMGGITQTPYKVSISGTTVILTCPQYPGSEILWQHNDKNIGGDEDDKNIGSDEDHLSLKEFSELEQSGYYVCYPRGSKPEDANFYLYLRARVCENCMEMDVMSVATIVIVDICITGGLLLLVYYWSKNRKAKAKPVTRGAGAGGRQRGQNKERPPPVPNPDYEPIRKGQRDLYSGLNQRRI
T4 sequence (Q95LI5 22-198): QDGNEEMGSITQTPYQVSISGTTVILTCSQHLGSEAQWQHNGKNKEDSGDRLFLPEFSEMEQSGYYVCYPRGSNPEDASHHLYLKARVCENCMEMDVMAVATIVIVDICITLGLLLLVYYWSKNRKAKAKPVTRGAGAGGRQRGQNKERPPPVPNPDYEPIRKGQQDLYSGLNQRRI

Kd [1]: 1.3 nM
MFI (max) [1]: 2490
Kd [2]: 2.1 nM
MFI (max) [2]: 4470
B1: rat anti-GPRC5D antibody 7B4 (antibody, V domains shown)
VH: EIHLQESGPGLVKPSQSLSLTCSVTGYTITSGYDWSWIRKFPGNKMEWMAYMSYRGSTNYNPSLKSRISITRDTSKNQFFLQLNSVTTEDTATYYCALTRTYWYNYYYVLDAWGQGASVTVSS
VL: DIQMTQSPSFLSASVGERVTLSCKASQNINKYLDWYQQKLGEPPKLLIYNTNNLHTGIPSRFSGSGSGTDYTLTISGLQPEDVATYFCLQRNSWYTFGAGTKLELK
notes: Rat IgG2b, kappa chain
binding result [3]: no binding (tested: 0.1 ng/mL to 1 µg/mL)
binding result [4]: no binding (tested: 0.1 ng/mL to 1 µg/mL)

EC50 (read off the curve) [5]: ~20 nM
binding result [6]: binds
EC50 (read off the curve) [7]: ~0.3 nM
B2: anti-GPRC5D-anti-CD3 bispecific molecule C3022-C3E7034 (bispecific antibody)
scFv: GQVQLVQSGAEVKKPGASVKVSCKASGYTFTGYYMHWVRQAPGQGLEWMGRINPNSGGTNYAQKFQGRVTMTRDTSISTAYMELSGLRSDDTAVYYCASGSVRHPWGQGTLVTVSSGGGGSGGGGSGGGGSQPVLTQPPSASGTPGQRVTISCSGSRSNIGGNIVSWYQQFPGTAPRLLTYADNQRPSGVPDRFSGSKSGTSASLAISGLQSEDEADYYCAAWDDSLNGVVFGGGTKLTVLGGGGSEVQLVESGGGLVQPGGSLRLSCAASGVTFNYYGMSWIRQAPGKGLEWVASITNSGGRIYYPDSVKGRFTISRENTQKTLYLQMNSLRAEDTAVYYCTLDGRDGWVAYWGQGTLVTVSSGGGGSGGGGSGGGGSNFMLTQPHSVSESPGKTVTISCKRNTGNIGSNYVNWYQQHEGSSPTTIIYRDDKRPDGVSDRFSGSIDRSSKSASLTISNLKTEDEADYFCQSYSSGFIFGGGTKLTVLGAAAGAGGDYKDDDDKGAAAHHHHHH
notes: Tandem scFv

binding result [10]: no binding
EC50 (read off the curve) [11]: ~10 nM
B5: human chimeric 2B1 (antibody, human IgG1, V domains shown)
VH: QVTLKESGPGILQPSQTLSLTCTFSGFSLNTYDMGVGWIRQPSGKGLEWLANIWWDDDKYYNPSLRNRLTISKDTSNNQAFLKITNVDTADTATYYCARIETVRVSRKGFAHWGQGTLVTVSS
VL: ETVMTQSPTSMSTSIGERVTLNCKASQSVGINVDWYQQTPGQSPKLLIYGASNRHTGVPDRFTGSGFGRDFTLTISNVEAEDLAVYYCLQHGSIPPTFGGGTKLELKR
notes: Human IgG1 / kappa constant regions

Continued, binder first:

B3: rat anti-GPRC5D antibody 2A4 (antibody, V domains shown)
VH: QVQLQQSGAELAKPGTSVKLSCKASGYTFTSYYIYWVKQRPGQGLEWIGYVYPGYGGTYYSDKFKGKATFTADTSSSTAYMLLGSLTPEDSAYYFCARRKGIIRGPGYFDYWGQGVMVTVSS
VL: DIQMTQSPASLSASLGETVSIECLASEGISNSLAWYQQKPGKSPQLLIYGASSLQDGVPSRFSGSGSGTQYSLKISGMQPEDEGLYYCQQGYKYPPTFGGGTKLELK
notes: Rat IgG2b, kappa chain
Kd [1]: 0.5 nM
MFI (max) [1]: 1150
Kd [2]: 1.4 nM
MFI (max) [2]: 2060
binding result [3]: no binding (tested: 0.1 ng/mL to 1 µg/mL)
binding result [4]: no binding (tested: 0.1 ng/mL to 1 µg/mL)

B4: humanized anti-GPRC5D antibody h2B1_H1/L2 (antibody, human IgG1, kappa, V domains shown)
VH: QVQLVESGGGLVKPSQTLSLTCTFSGFSLNTYDMGVGWIRQPPGKGLEWIGNIWWDDDKYYNPSLKSRVTISVDTSKNQASLKLSSVTAADTAVYYCARIETVRVSRKGFAHWGQGTLVTVSS
VL: DTVMTQSPDSLAVSLGERATINCKASQSVGINVDWYQQKPGQPPKLLIYGASNRHTGVPDRFSGSGFGTDFTLTISSLQAEDVAVYYCLQHGSIPPTFGQGTKVEIKR
notes: Human IgG1 / kappa
binding result [8]: binds
EC50 (read off the curve) [9]: ~4 nM
